The values that follow come from article PMC5771124, “Characterization of a functional insertion sequence ISSau2 from Staphylococcus aureus”.

The series concerns the target ISSau2 transposase OrfAB (Staphylococcus aureus E48 (ISSau2 in …, UniProt UPI0010FBCD58 1-522, F226L)). Briefly: EMSA; Mg2+, excess poly(dI-dC), 0.42 ug OrfAB. The settings on record: protein: recombinant; tags: N-terminal 6-His (pET32a vector fusion); label: biotin end label.

B1: IRL42 (dsDNA)
DNA 1: TGAAATGCTCCCTTCAAAGTAGACATTGAAAAAATGAAAACT
DNA 2: AGTTTTCATTTTTTCAATGTCTACTTTGAAGGGAGCATTTCA
For the molecule B1, the binding result was “binds”.
